This note sets out measurements from patent US20110195027A1.

What all share (assay): ELISA: antibody coated, supernatant, anti-His-HRP
Assay [1] has as its target p-Myc-His CD9-ECL2 wild type (human).
Assay [2] concerns the target CD9-ECL2 mutant M4 (human, with rat residues) (UniProt P21926).
Assay [3] concerns the target CD9-ECL2 mutant M1 (human, with rat residues) (UniProt P21926).

“And” between values parts separate entries of the source, which are not always exact repeats. Equal entries are not always repeated.

Chain of CD9-ECL2 mutant M4 (human, with rat residues) (P21926 other isoform, or with tags, fused parts or gaps mutant): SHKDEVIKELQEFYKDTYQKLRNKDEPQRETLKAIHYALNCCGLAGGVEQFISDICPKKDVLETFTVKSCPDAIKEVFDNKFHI
Chain of CD9-ECL2 mutant M1 (human, with rat residues) (P21926 other isoform, or with tags, fused parts or gaps mutant): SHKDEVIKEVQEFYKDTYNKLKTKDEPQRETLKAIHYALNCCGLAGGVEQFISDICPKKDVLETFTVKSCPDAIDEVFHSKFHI
Chain of p-Myc-His CD9-ECL2 wild type (human) (chain, as listed by the source limits assumed): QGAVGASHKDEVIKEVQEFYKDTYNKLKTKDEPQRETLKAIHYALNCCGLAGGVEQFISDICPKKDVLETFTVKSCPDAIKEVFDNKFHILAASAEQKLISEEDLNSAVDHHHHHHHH

Take “ALB6 (anti-CD9, Beckman coulter) (antibody)”: the OD490 is 0.427 and 0.506 in assay [1]; 0.485 and 0.574 in assay [2]; 0.334 and 0.383 in assay [3].

On to normal human IgG (antibody), for which the OD490 amounted to 0.056 in assay [1], 0.053 in assay [2] and 0.054 in assay [3].

As for normal mouse IgG (antibody), the OD490 in assay [1] is 0.044 and 0.053; in assay [2], 0.04 and 0.047; in assay [3] it was 0.046 and 0.056.
